From patent US20230073692A1 (CYTOMX THERAPEUTICS, published 2023)

Key:
[1] = biological target: T1, Rat SLC34A2 (rat, UniProt Q9JJ09 1-695); assay: binding affinity on Rat1E cells expressing rat SLC34A2
T1 construct: whole, on cells; also called Rat1E cells expressing SLC34A2 (Rat)
T1 sequence (looked up): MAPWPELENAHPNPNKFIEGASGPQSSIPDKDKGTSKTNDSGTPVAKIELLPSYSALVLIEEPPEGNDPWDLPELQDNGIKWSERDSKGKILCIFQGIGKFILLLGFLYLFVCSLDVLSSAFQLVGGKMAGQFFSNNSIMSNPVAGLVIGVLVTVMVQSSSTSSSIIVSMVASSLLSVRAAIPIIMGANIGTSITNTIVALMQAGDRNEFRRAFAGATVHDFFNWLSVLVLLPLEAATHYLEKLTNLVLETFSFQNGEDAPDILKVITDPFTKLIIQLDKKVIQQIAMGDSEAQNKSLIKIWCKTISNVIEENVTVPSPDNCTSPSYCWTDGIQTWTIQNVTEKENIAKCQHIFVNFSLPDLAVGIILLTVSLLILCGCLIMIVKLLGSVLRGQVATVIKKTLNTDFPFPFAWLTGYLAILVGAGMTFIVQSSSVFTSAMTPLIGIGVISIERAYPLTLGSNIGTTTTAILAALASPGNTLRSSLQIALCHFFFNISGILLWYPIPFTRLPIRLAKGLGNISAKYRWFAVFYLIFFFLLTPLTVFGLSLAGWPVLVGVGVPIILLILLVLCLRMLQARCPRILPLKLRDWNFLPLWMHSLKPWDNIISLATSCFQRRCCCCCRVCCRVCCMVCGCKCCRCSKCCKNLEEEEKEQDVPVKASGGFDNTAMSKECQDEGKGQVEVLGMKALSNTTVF

[2] = biological target: T2, Human SLC34A2 (human, UniProt O95436 1-690); assay: cell binding, OVCAR3 cells
T2 construct: whole, on cells; also called SLC34A2 on OVCAR3 cells; Rat 1E Human SLC34A2
T2 sequence (looked up): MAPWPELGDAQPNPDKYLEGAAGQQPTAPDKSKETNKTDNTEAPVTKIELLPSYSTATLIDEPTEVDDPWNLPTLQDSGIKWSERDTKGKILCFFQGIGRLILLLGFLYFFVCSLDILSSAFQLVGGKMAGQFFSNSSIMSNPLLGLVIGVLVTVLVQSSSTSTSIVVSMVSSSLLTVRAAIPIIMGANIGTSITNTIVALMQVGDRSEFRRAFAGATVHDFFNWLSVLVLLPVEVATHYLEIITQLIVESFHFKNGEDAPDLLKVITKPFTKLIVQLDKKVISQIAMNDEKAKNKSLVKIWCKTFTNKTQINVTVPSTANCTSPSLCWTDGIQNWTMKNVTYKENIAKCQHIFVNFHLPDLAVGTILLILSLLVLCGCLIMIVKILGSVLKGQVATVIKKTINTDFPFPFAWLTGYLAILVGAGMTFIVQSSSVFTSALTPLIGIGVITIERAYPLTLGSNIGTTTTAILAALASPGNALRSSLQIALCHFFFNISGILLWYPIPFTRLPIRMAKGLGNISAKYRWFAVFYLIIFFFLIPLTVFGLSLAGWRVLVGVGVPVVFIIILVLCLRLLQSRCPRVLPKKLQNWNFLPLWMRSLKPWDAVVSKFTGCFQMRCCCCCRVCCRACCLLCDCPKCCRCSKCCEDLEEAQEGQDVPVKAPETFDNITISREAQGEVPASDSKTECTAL

[3] = biological target: T2, Human SLC34A2; assay: cell binding, Rat1E cells expressing human SLC34A2
[4] = biological target: T3, Cyno SLC34A2 (cynomolgus monkey, UniProt A0A2K5UHY1 1-690); assay: cell binding, Rat1E cells expressing cyno SLC34A2
T3 construct: whole, on cells; Recombinant, on Rat1E cells; also called cynomolgus monkey SLC34A2; Rat1E cells expressing SLC34A2 (Cynomolgus)
T3 sequence: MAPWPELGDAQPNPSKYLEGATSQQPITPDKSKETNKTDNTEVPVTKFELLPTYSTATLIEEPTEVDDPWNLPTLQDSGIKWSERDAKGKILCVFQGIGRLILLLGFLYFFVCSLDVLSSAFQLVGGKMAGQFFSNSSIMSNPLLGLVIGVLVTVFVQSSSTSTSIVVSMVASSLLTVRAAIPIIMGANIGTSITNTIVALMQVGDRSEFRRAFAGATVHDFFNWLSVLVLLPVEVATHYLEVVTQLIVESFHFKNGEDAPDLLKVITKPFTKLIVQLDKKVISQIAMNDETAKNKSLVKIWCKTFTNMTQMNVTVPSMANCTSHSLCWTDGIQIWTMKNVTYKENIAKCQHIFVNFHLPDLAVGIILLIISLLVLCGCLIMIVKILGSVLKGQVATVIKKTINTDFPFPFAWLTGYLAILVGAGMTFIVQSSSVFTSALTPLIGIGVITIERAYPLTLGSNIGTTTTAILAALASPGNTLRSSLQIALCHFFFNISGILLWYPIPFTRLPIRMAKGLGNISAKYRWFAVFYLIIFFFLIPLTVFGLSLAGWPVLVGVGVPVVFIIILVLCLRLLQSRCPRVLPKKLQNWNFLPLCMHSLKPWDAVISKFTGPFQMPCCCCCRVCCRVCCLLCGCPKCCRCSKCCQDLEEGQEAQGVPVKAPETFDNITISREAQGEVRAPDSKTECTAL

[5] = biological target: T3, Cyno SLC34A2; assay: binding affinity on Rat1E cells expressing cynomolgus SLC34A2
[6] = biological target: Murine SLC34A2 (murine) (UniProt Q9DBP0); assay: cell binding, Rat1E cells expressing murine SLC34A2
[7] = biological target: T2, Human SLC34A2; assay: binding affinity on Rat1E cells expressing human SLC34A2
[8] = biological target: T4, Human SLC34A1 (human, UniProt Q06495); assay: flow cytometry on 293-FT cells transiently transfected with human SLC34A1, overlay with isotype control
T4 sequence (target protein, looked up): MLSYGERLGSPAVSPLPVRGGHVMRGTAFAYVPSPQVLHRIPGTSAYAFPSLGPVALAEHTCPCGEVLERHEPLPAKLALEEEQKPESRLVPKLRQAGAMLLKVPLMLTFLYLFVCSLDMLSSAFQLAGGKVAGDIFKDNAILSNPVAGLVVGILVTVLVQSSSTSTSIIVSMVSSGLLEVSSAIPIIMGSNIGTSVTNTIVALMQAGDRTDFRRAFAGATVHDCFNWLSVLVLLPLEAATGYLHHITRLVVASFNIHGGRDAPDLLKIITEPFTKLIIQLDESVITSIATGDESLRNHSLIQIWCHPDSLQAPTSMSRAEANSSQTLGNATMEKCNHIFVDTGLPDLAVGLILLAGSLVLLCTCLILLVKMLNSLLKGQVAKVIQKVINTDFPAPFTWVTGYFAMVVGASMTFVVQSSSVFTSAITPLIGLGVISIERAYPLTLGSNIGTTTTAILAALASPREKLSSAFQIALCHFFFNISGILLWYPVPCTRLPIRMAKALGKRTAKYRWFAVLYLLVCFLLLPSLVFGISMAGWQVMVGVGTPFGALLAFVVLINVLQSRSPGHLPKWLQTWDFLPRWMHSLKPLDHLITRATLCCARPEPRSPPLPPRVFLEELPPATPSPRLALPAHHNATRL

[9] = biological target: T5, Human SLC34A3 (human, UniProt Q8N130); assay: flow cytometry on 293-FT cells transiently transfected with human SLC34A3, overlay with isotype control
T5 sequence (target protein, looked up): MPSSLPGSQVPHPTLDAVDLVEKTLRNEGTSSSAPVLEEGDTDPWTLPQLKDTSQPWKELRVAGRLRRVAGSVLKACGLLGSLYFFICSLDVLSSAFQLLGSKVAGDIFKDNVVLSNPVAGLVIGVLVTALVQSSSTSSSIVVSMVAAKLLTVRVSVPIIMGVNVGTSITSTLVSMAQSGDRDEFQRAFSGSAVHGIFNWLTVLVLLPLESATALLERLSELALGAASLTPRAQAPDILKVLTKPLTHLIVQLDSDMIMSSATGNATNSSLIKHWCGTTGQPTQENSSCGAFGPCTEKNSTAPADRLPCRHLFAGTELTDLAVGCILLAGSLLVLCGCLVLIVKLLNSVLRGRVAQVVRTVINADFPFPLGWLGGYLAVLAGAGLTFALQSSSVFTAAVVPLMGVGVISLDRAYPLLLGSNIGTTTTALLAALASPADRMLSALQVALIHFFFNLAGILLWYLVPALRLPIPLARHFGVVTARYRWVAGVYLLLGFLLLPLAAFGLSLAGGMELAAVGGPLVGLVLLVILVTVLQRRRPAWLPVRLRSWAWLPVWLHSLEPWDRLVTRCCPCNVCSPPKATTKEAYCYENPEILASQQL

[10] = biological target: T2, Human SLC34A2; assay: cell-based or functional assay
[11] = biological target: T5, Human SLC34A3; assay: flow cytometry on 293-FT cells transiently transfected with human SLC34A3, overlay with isotype control ADC
[12] = biological target: T4, Human SLC34A1; assay: flow cytometry on 293-FT cells transiently transfected with human SLC34A1, overlay with isotype control ADC

Row | Kd [1] [nM] | Kd [2] [nM] | Kd [3] [nM] | Kd [4] [nM] | Kd [5] [nM] | Bmax [6] | Kd [6] [nM] | Kd [7] [nM] | binding result [8] | binding result [9] | binding result [11] | binding result [12] | Binder | in vitro cytotoxicity in target-positive OVCAR3 cells [10]
1 | 0.246 | 3.79 | 1.03 | 0.967 | 0.67 | 15000 | 0.0631 | 0.721 | no binding | no binding |  |  | cHv83-1b15.G1(L328C)k (antibody, V domains shown, the name says L328C in the IgG1 constant region; also called [Ag]AB-3; cHv83-1b15.G1k(L328C)k) VH: EVQLVESGGGWVQPGGSLRLSCAASGFTFSSHIMYWVRQAPGKGLEYVSGISSNGLSSYYVDSVKGRFTISRDNSKNLLYVHMGSLKPEDMAMYYCARGGRDRVPAVFDYWGQGTLVTVSS VL: DIQMTQSPSSLSASIGDRVTITCRASQSIGTFLNWYQQKPGKAPKVLIYVASSLQSGVPSRFIGSGSGTDFTLTISSLQPEDFATYYCQQSYSVPITFGQGTRLEIKR | 
2 | 0.913 |  |  |  | 1.2 |  |  | 1.76 |  |  | no binding | no binding | cHv83-1b15.G1(L328C)k-AGL-01332-93 (OT#2) (other, AGL-01332-93 drug-linker conjugated to the antibody; engineered Cys at 328 (L328C) lies in the IgG1 constant region, outside the VH pieces given, Human IgG1 (L328C) / kappa) VH: EVQLVESGGGWVQPGGSLRLSCAASGFTFSSHIMYWVRQAPGKGLEYVSGISSNGLSSYYVDSVKGRFTISRDNSKNLLYVHMGSLKPEDMAMYYCARGGRDRVPAVFDYWGQGTLVTVSS VL: DIQMTQSPSSLSASIGDRVTITCRASQSIGTFLNWYQQKPGKAPKVLIYVASSLQSGVPSRFIGSGSGTDFTLTISSLQPEDFATYYCQQSYSVPITFGQGTRLEIKR | > 10 fold better EC50 than the benchmark ADC
3 | 0.686 |  |  |  | 0.227 |  |  | 0.411 |  |  | no binding | no binding | cHv83-3a23.G1(L328C)k-AGL-01332-93 (OT#1) (other, AGL-01332-93 drug-linker conjugated to the antibody; engineered Cys at 328 (L328C) lies in the IgG1 constant region, outside the VH pieces given, Human IgG1 (L328C) / kappa) VH: EVQLVESGGGLVQPGGSLRLSCAASGFTFSSYVMHWVRQAPGKGLEYVSGVSSSGDSTFYVDSVKGRFTISRDNSKNTLYLQMGSLRAEDMAVYYCARGGITGAPLVFDIWGQGTMVTVSS VL: DIQMTQSPSSLSASVGDRVTITCRASQSISRFLNWYQQKPGKAPKVLIYVTSSLQSGVPSRFSGSGSGTDFTLTISSLQPEDFATYYCQQSYNTPITFGQGTRLEIKR | > 10 fold better EC50 than the benchmark ADC
4 | 0.689 | 2.28 | 0.254 | 0.17 | 0.17 | 11300 | 0.0903 | 0.553 | no binding | no binding |  |  | cHv83-3a23.G1(L328C)k (antibody, V domains shown, the name says L328C in the IgG1 constant region; also called [Ag]AB-2; unconjugated antibody of OT1 / OT#1) VH: EVQLVESGGGLVQPGGSLRLSCAASGFTFSSYVMHWVRQAPGKGLEYVSGVSSSGDSTFYVDSVKGRFTISRDNSKNTLYLQMGSLRAEDMAVYYCARGGITGAPLVFDIWGQGTMVTVSS VL: DIQMTQSPSSLSASVGDRVTITCRASQSISRFLNWYQQKPGKAPKVLIYVTSSLQSGVPSRFSGSGSGTDFTLTISSLQPEDFATYYCQQSYNTPITFGQGTRLEIKR | 
